Assay results as given in US20230002480A1.

Columns and labels:
Experiment in all cases: cell-based or functional assay
[1] = biological target: HIV-1 Env of pseudovirus X2088_c9 (clade G) (HIV-1)
[2] = biological target: HIV-1 Env of pseudovirus 620345.c01 (clade CRF01_AE) (HIV-1)
[3] = biological target: HIV-1 Env of pseudovirus T251-18 (clade CRF02_AG) (HIV-1)
[4] = biological target: HIV-1 Env of pseudovirus P0402_c2_11 (clade G) (HIV-1)
[5] = biological target: HIV-1 Env of pseudovirus 6240_08_TA5_4622 (clade B (T/F)) (HIV-1)
[6] = biological target: HIV-1 Env of pseudovirus 62357_14_D3_4589 (clade B (T/F)) (HIV-1)
[7] = biological target: HIV-1 Env of pseudovirus Q769.d22 (clade A) (HIV-1)
[8] = biological target: HIV-1 Env of pseudovirus Du172.17 (clade C) (HIV-1)
[9] = biological target: HIV-1 Env of pseudovirus HIV-16055-2.3 (clade C) (HIV-1)
[10] = biological target: HIV-1 Env of pseudovirus THRO4156.18 (clade B) (HIV-1)
[11] = biological target: HIV-1 Env of pseudovirus Ce1172_H1 (clade C (T/F)) (HIV-1)
[12] = biological target: HIV-1 Env of pseudovirus Ce2010_F5 (clade C (T/F)) (HIV-1)
[13] = biological target: HIV-1 Env of pseudovirus Ce1086_B2 (clade C (T/F)) (HIV-1)
[14] = biological target: HIV-1 Env of pseudovirus CNE17 (clade BC) (HIV-1)
[15] = biological target: HIV-1 Env of pseudovirus Ce704809221_1B3 (clade C (T/F)) (HIV-1)
[16] = biological target: HIV-1 Env of pseudovirus 249M B10 (clade C (T/F)) (HIV-1)
[17] = biological target: HIV-1 Env of pseudovirus Q23.17 (clade A) (HIV-1)
[18] = biological target: HIV-1 Env of pseudovirus ZM109F.PB4 (clade C) (HIV-1)
[19] = biological target: HIV-1 Env pseudovirus 6480.v4.c25 (HIV-1)
[20] = biological target: HIV-1 Env pseudovirus 3415.v1.c1 (HIV-1)
[21] = biological target: HIV-1 Env pseudovirus 3016.v5.c45 (HIV-1)
[22] = biological target: HIV-1 Env pseudovirus 6540.v4.c1 (HIV-1)
[23] = biological target: HIV-1 Env pseudovirus 191955_A11 (HIV-1)
[24] = biological target: HIV-1 Env pseudovirus R3265.c06 (HIV-1)
[25] = biological target: HIV-1 Env pseudovirus X2131_C1_B5 (HIV-1)
[26] = biological target: HIV-1 Env pseudovirus T251-18 (HIV-1)
[27] = biological target: HIV-1 Env pseudovirus 620345.c01 (HIV-1)
[28] = biological target: HIV-1 Env pseudovirus BJOX015000.11.5 (HIV-1)
[29] = biological target: HIV-1 Env pseudovirus 6811.v7.c18 (HIV-1)
[30] = biological target: HIV-1 Env pseudovirus P1981_C5_3 (HIV-1)
[31] = biological target: HIV-1 Env pseudovirus 0815.v3.c3 (HIV-1)
[32] = biological target: HIV-1 Env pseudovirus 6041.v3.c23 (HIV-1)

Substance: 10-1074 (antibody)
- IC50, titer in TZM.bl cells [1]: 0.003 µg/mL
- IC80, titer in TZM.bl cells [1]: 0.014 µg/mL
- IC50, titer in TZM.bl cells [2]: > 50 µg/mL
- IC80, titer in TZM.bl cells [2]: > 50 µg/mL
- IC50, titer in TZM.bl cells [3]: 1.08 µg/mL
- IC80, titer in TZM.bl cells [3]: 7.39 µg/mL
- IC50, titer in TZM.bl cells [4]: 0.012 µg/mL
- IC80, titer in TZM.bl cells [4]: 0.039 µg/mL

Substance: 10E8 (antibody)
- IC50, titer in TZM.bl cells [1]: > 10 µg/mL
- IC80, titer in TZM.bl cells [1]: > 10 µg/mL
- IC50, titer in TZM.bl cells [2]: 0.455 µg/mL
- IC80, titer in TZM.bl cells [2]: 6 µg/mL
- IC50, titer in TZM.bl cells [3]: 2.36 µg/mL
- IC80, titer in TZM.bl cells [3]: > 10 µg/mL
- IC50, titer in TZM.bl cells [4]: 0.172 µg/mL
- IC80, titer in TZM.bl cells [4]: 3.29 µg/mL

Substance: N49P7.2 (antibody)
- IC50 [5]: 0.812 µg/mL
- IC80 [5]: 2.87 µg/mL
- MPI [5]: 100
- IC50 [6]: 0.03 µg/mL
- IC80 [6]: 0.121 µg/mL
- MPI [6]: 100
- IC50 [7]: 0.029 µg/mL
- IC80 [7]: 0.14 µg/mL
- MPI [7]: 100
- IC50 [8]: 0.29 µg/mL
- IC80 [8]: 1.08 µg/mL
- MPI [8]: 100
- IC50 [9]: 0.204 µg/mL
- IC80 [9]: 0.721 µg/mL
- MPI [9]: 100
- IC50 [10]: 6.29 µg/mL
- IC80 [10]: 33.3 µg/mL
- MPI [10]: 94
- IC50 [11]: > 50 µg/mL
- IC80 [11]: > 50 µg/mL
- MPI [11]: 6
- IC50 [12]: 0.398 µg/mL
- IC80 [12]: 1.29 µg/mL
- MPI [12]: 100
- IC50 [13]: 0.166 µg/mL
- IC80 [13]: 1 µg/mL
- MPI [13]: 100
- IC50 [14]: 0.376 µg/mL
- IC80 [14]: 1.24 µg/mL
- MPI [14]: 100
- IC50 [15]: 0.874 µg/mL
- IC80 [15]: 3.88 µg/mL
- MPI [15]: 100
- IC50 [16]: 0.095 µg/mL
- IC80 [16]: 0.349 µg/mL
- MPI [16]: 100
- IC50 [17]: 0.051 µg/mL
- IC80 [17]: 0.2 µg/mL
- MPI [17]: 100
- IC50 [18]: 0.065 µg/mL
- IC80 [18]: 0.321 µg/mL
- MPI [18]: 99

Substance: N49P9 (antibody)
- IC50 [19]: 0.017 µg/mL
- IC80 [19]: 0.047 µg/mL
- MPI [19]: 100
- IC50 [20]: 0.137 µg/mL
- IC80 [20]: 0.502 µg/mL
- MPI [20]: 100
- IC50 [21]: 0.06 µg/mL
- IC80 [21]: 0.209 µg/mL
- MPI [21]: 100
- IC50 [22]: > 50 µg/mL
- IC80 [22]: > 50 µg/mL
- MPI [22]: 49
- IC50 [23]: > 50 µg/mL
- IC80 [23]: > 50 µg/mL
- MPI [23]: 35
- IC50 [24]: 0.135 µg/mL
- IC80 [24]: 0.812 µg/mL
- MPI [24]: 100
- IC50 [25]: 0.082 µg/mL
- IC80 [25]: 0.274 µg/mL
- MPI [25]: 100
- IC50 [26]: 0.147 µg/mL
- IC80 [26]: 0.517 µg/mL
- MPI [26]: 100
- IC50 [27]: > 50 µg/mL
- IC80 [27]: > 50 µg/mL
- MPI [27]: 9
- IC50 [28]: 0.089 µg/mL
- IC80 [28]: 0.375 µg/mL
- MPI [28]: 100
- IC50 [29]: 0.249 µg/mL
- IC80 [29]: 1.2 µg/mL
- MPI [29]: 99
- IC50 [30]: 0.308 µg/mL
- IC80 [30]: 0.701 µg/mL
- MPI [30]: 100
- IC50 [31]: 0.02 µg/mL
- IC80 [31]: 0.057 µg/mL
- MPI [31]: 100
- IC50 [32]: 0.089 µg/mL
- IC80 [32]: 0.777 µg/mL
- MPI [32]: 95

Substance: N49P9.1 (antibody)
- IC50 [19]: 0.03 µg/mL
- IC80 [19]: 0.082 µg/mL
- MPI [19]: 100
- IC50 [20]: 0.21 µg/mL
- IC80 [20]: 1.37 µg/mL
- MPI [20]: 100
- IC50 [21]: 0.076 µg/mL
- IC80 [21]: 0.223 µg/mL
- MPI [21]: 100
- IC50 [22]: > 50 µg/mL
- IC80 [22]: > 50 µg/mL
- MPI [22]: 30
- IC50 [23]: > 50 µg/mL
- IC80 [23]: > 50 µg/mL
- MPI [23]: 26
- IC50 [24]: 0.469 µg/mL
- IC80 [24]: 1.62 µg/mL
- MPI [24]: 100
- IC50 [25]: 0.143 µg/mL
- IC80 [25]: 0.476 µg/mL
- MPI [25]: 100
- IC50 [26]: 0.127 µg/mL
- IC80 [26]: 0.352 µg/mL
- MPI [26]: 100
- IC50 [27]: > 50 µg/mL
- IC80 [27]: > 50 µg/mL
- MPI [27]: 7
- IC50 [28]: 0.068 µg/mL
- IC80 [28]: 0.478 µg/mL
- MPI [28]: 100
- IC50 [29]: 0.398 µg/mL
- IC80 [29]: 1.76 µg/mL
- MPI [29]: 97
- IC50 [30]: 0.469 µg/mL
- IC80 [30]: 1.52 µg/mL
- MPI [30]: 100
- IC50 [31]: 0.012 µg/mL
- IC80 [31]: 0.041 µg/mL
- MPI [31]: 100
- IC50 [32]: 0.282 µg/mL
- IC80 [32]: 6.78 µg/mL
- MPI [32]: 90
